Measured values from the domain aggregation screens of Martell et al. (2025).

Experiment: soluble fraction after stress (log2 fold change); higher = more stays soluble; pooled small domains, quantitative proteomics
Conditions: stress: pH 4
Method in brief: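 With high-throughput quantitative proteomics, pooled custom libraries of small protein domains were measured after pH 4 stress. Each domain's soluble amount after the stress gives a fold change taken as aggregation propensity. Higher log2 values mean more of the domain stayed soluble.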

Sequence | soluble fraction (log2)
HMGKMTSTLGVHIAAYRKEHGETVAQFASRSGVSVSSIRRIESGISDPSADLVWKISRHMGMTMDDLFKKM | -0.0972
HMGKNISEEDMLGYFKKIDLDYDAETKEVIAPTFRHDLFRLADLAEEVARFFGYDNIPTTLPSGEAT | -0.488
HMGKPAGLIRELGNHPEDEKPVTLNNGRFGPYVKHGKVMASLTKADSPDDITFDRAIELIAIKAEKMAAKG | -0.00901
HMGKPTPASQVATRWLTGNLPESLPVAGPAPSFEALARTVSTDLHPRSVLQELVRLGVAEEANGVVTLRRQ | -0.0399
HMGKPVTMELLIPYSQGSLVHRISEAGEVAKTEYQNDGTYMQVTFTPSAKDHALMQEVASYRI | 0.0901
HMGKSDDSLAAEKFIQHVRKNGELSYEQAYRMVHAYFPDFRNFEGMVSGAVKSGYLILIQKSTGLFLRAKE | -0.205
HMGKTEMPFSTFLTEVDKGNIVSVDIRGSEISGNFRDGKGFKTYSPNYPNLVEKLSAKGVAITAGPR | 0.295
HMGKTKFTEMSALELKAYAELNNNSMHWVYRMLYIGGGDVGFRKGMKELGYSGKFIWMTLERLKKS | -0.583
HMGKTTQEIEERSSTSTLTLTQTPKEIISVQGKKSDQSFFTNIQYTQNGKVIVPKQTGIYDTIKVVFTVSL | -0.256
HMGKVLIYKPNMSVSDVAIRLGISNAEIIKRLMGLGVMTSINQTIDRDTIELVAMDLGFSIEN | -0.581
HMGLAGVQSDVKVSFDGDLLVVTSDIARSFNLFAVDGRLIRSVNLIAGRNEIRGLERGFYLAEKQKIFV | -1.36
HMGLAWTVEGRTVLLGRTADRIELYNVGGGLVALARESDRISAPGVGLYVVRVVSDGQSVSQKIWIT | -0.325
HMGLDMSLEREQHRALREASQWYARLADEQVDSDAERAWRHWVAADEANQRAWQYIEAVSQRFDG | -0.829
HMGLDNEGFERLRQKITRLLSEEALPVKELVDSFASKMRQEVLETLAFLQQEGVIEEKNGKLFLK | -0.283
HMGLIDNLTRIMEKKNISAYQLEKAGIVKQTTFTSWKKGTQPALDKIIKIMQYIEVTPNELFGY | -0.456
HMGLKWVYYTNIEPDGNKINNQKLYDILKQKFVYPVIISRDELDSMELKDLTYDSYIDVEGRYFKPYNLD | -2.03
HMGLNPSILVKLGNANIKTIDNLADLASDELKEILEDISITSKEADEIIMRARSSWFEEDDKKEDNI | 0.175
HMGLPAWVPQNYIDRVTAIYDYSADKDDELTFNEGSTIFVLKKNDDGWWEGVMDGVTGLFPGNYVEAT | -1.63
HMGLQLTPVRRRVLEILLHEHRALGAYDILDKLRSEGLGSQPPVAYRALDFLVTHGFAHKIERLNAF | -0.0897
HMGLQRLTVSPEDAGVRIDKYLAEQLPDITRSYLQKLLKDGSVQMNGKPVKASTKTAVGAVIALTIPEP | -0.157
HMGLSAEAARMAIQDAGLSKEDFAQKLGIKKVERVVEWEAGTSKPTFVQAQKIANATNIPFGYLFLVNPPK | 0.0939
HMGLTRRAQLEVADANLKRLYPGMHQSWVTAIAEYLHSSYWRYINSLEPEYAASIQRVYEQHIDAM | -0.0592
HMGLTYEQILTDVQRFVTQNHADTLSNEGNPEEARKLLKDYILQYVQNRSYHVDGQTTEELVDSLYED | -1.13
HMGLVDSLEPLLRRVYEALPQRRSMTTERLAVAAGLDEESVKVALARLQLSAFVGVDERGWHRSL | -0.0455
HMGLVLIDSYNDIGSAKLITNKIRNLGLIFEENENKINVFAGPFEKNDINLKIDFLIRNGYTNAQLY | -1.92
HMGLVQQSAQKSDDAAKLMAANNLNAAQSKYQLPDEAEKDFFTFAFERGYAVEDFVDAGLVDKIMADFSA | -0.44
HMGLVVIGTEAGYPAEKAGILAGDRIRKLNGAAVPDYDTFLTALAARKGEPSAIELERDGKTLEVTVSPL | -0.21
